Source: patent US6967100B2, “Pancreatic islet cell growth factors” (The Walter and Eliza Hall Institute of Medical Research, priority 2000, dated 2005)

B1: BMP 4/7: BMP 4 and BMP 7 heterodimer, recombinant mouse, CHO cell conditioned medium (protein, UniProt P21275 293-408; P23359 292-430, looked up)
Bone morphogenetic protein 4: SPKHHPQRSRKKNKNCRRHSLYVDFSDVGWNDWIVAPPGYQAFYCHGDCPFPLADHLNSTNHAIVQTLVNSVNSSIPKACCVPTELSAISMLYLDEYDKVVLKNYQEMVVEGCGCR
Bone morphogenetic protein 7: STGGKQRSQNRSKTPKNQEALRMASVAENSSSDQRQACKKHELYVSFRDLGWQDWIIAPEGYAAYYCEGECAFPLNSYMNATNHAIVQTLVHFINPDTVPKPCCAPTQLNAISVLYFDDSSNVILKKYRNMVVRACGCH
modifications: heterodimer
notes: BMP 4 and BMP 7 heterodimer, recombinant mouse, CHO cell conditioned medium
B2: Activin A: recombinant activin A from R&D Systems (protein, UniProt P08476 311-426, looked up)
Inhibin beta A chain: GLECDGKVNICCKKQFFVSFKDIGWNDWIIAPSGYHANYCEGECPSHIAGTSGSSLSFHSTVINHYRMRGHSPFANLKSCCVPTKLRPMSMLYYDDGQNIIKKDIQNMIVEECGCS
B3: BMP 6: recombinant human BMP 6 purchased from R&D Systems (protein, UniProt P22004 375-513, looked up)
Bone morphogenetic protein 6: SASSRRRQQSRNRSTQSQDVARVSSASDYNSSELKTACRKHELYVSFQDLGWQDWIIAPKGYAANYCDGECSFPLNAHMNATNHAIVQTLVHLMNPEYVPKPCCAPTKLNAISVLYFDDNSNVILKKYRNMVVRACGCH
B4: BMP 5: recombinant human BMP 5 purchased from R&D Systems (protein, UniProt P22003 317-454, looked up)
Bone morphogenetic protein 5: AANKRKNQNRNKSSSHQDSSRMSSVGDYNTSEQKQACKKHELYVSFRDLGWQDWIIAPEGYAAFYCDGECSFPLNAHMNATNHAIVQTLVHLMFPDHVPKPCCAPTKLNAISVLYFDDSSNVILKKYRNMVVRSCGCH

Columns and labels:
Assay type in all cases: cell-based
C2C12 myoblasts = assay: C2C12 cell BMP bioassay (transformation of myoblasts into alkaline phosphatase-containing osteoblasts); conditions: for BMP activity of conditioned medium (alkaline phosphatase activity of C2C12 cells): conditioned medium of stably transfected CHO cells, compared to medium of untransfected CHO cells
Experimental: BMP activity was measured in the C2C12 cell bioassay, in which BMPs transform C2C12 myoblasts into alkaline phosphatase-containing osteoblasts (Katagiri et al., 1994). Briefly, CHO cells were plated at a density of around 5×10^6 per 75 cm^2 flask in serum-free HYBRIDOMA medium (Gibco BRL Life Technology) (SFHM) containing 10% v/v FCS. Once the cells had reached confluency, the medium was removed, the cells washed twice with SFHM and 10 ml of SFHM then added to each flask. The cells were cultured for four days and the conditioned medium collected, filtered through a 2 micron filter and stored at 4° C.
2×10^3 C2C12 cells were plated into each well of a 96-well tissue culture plate in DME/10% v/v FCS. Twenty-four hours later, the medium was removed and replaced with 100 μl SFHM/1% v/v FCS. 50 μl of each conditioned medium was added in duplicate to the top row of the 96-well plate and the volume of these wells then made up to 200 μl. Using a multi-channel pipette, 100 μl from each well was then serially transferred to subsequent rows thus diluting the conditioned medium 2-fold with each transfer. After incubation for five days, the media were discarded and the cells washed with normal saline. Cells were lysed for 10 mins at room temperature (RT) in 100 μl 0.5% v/v TritonX-100 and 100 mM diethanolamine (pH 9.5) in normal saline. To each well was then added an aqueous solution containing 10 mM diethanolamine, 1 mg/ml p-nitrophenyl phosphate (PNPP) and 0.5 mM MgCl2. The yellow reaction product catalyzed by alkaline phosphatase was allowed to develop for 10-60 mins before reading absorption at 415 nm.

[1] = system: 13.5 dpc fetal mouse pancreas cells; assay: Colony formation of 13.5 dpc fetal mouse pancreas cells cultured with BMPs and laminin-1
Experimental: Dissociated fetal pancreas cells were prepared from 13.5 dpc CBA mice. Pregnant mice at 13.5 dpc were killed by cervical dislocation and fetuses collected into ice cold sterile mouse tonicity phosphate-buffered saline (MTPBS). Fetal pancreata were harvested under an Olympus dissection microscope into RPMI 1640 medium and dissociated in a shaking water bath at 37° C. for 11 mins in Ca^2+/Mg^2+-free PBS containing 0.5% v/v trypsin/EDTA as described for testis by Bucci et al. (1986). After dissociation, trypsin was inactivated by addition of 8% w/v bovine serum albumin (BSA, fraction V) (Sigma, St. Louis, USA). The tissue was aspirated several times in a pipette, passed through a 27 gauge needle to make a single cell suspension and then rinsed in 10 μg/ml DNAse I (Promega, Madison, USA) in RPMI 1640 for 10 mins to reduce cellular aggregates. Cell suspensions were filtered through a 70-100 μm steel mesh, centrifuged at 400×g for 5 mins and the supernatant discarded. The cell pellet was resuspended in HYBRIDOMA medium and stored on ice. Cells were counted under a haemocytometer and viability was determined by exclusion of 0.2% v/v trypan blue dye. Pancreatic cells were plated in 8 chamber slides (Nunc) at 1.5×10^4 cells/well in 0.3 ml HYBRIDOMA medium 500 UI/ml penicillin and 500 μg/ml streptomycin. The cells were cultured in 10% v/v CO2, 90% v/v air at 37° C. with 100% humidity for four days in the presence of factors such as laminin-1 and BMPs.
After four days in culture, cells were washed twice with warm MT-PBS and fixed with a 4% v/v paraformaldehye for 10 mins. In some cases, 100 μM BrdU was added to label proliferating cells 12 hours before fixation and detection with monoclonal antibody to BrdU and FITC-labelled rabbit anti-mouse immunoglobulin. For immunoperoxidase staining, endogenous peroxidase was blocked by 3% v/v H2O2 in methanol for 8 mins and, prior to addition of primary antibody, non-specific protein binding was blocked by incubation for at least 30 mins in MTPBS containing 2% w/v BSA or 2% v/v normal rabbit serum. Controls were performed by replacing primary antibody with pre-immune serum from the appropriate species. Tissue sections or cells were incubated with primary antibodies for 90 min RT, followed by three thorough washes with MTPBS. For immunoperoxidase staining, horseradish peroxidase-conjugated rabbit anti-guinea pig, swine anti-rabbit or rabbit anti-mouse immunoglobulins (Dako) diluted 1:80 were added for 30 mins at RT followed by thorough washes; colour was developed with 3,3′-diaminobenzidine/H2O2 for 4-8 mins and slides counterstained with haematoxylin.
A pancreatic cell colony was defined as a spherical collection of 20 cells. Colonies were counted under a×10 power objective with an eyepiece graticule.

[2] = system: E15.5 CBA mouse fetal pancreas cells; assay: Cystic colony formation of E15.5 fetal mouse pancreas cells in laminin-1 overlay culture; conditions: for concentration of maximal stimulation of colony formation: day 6, fewer colonies at higher concentrations; for formation of cystic colonies in the presence of laminin-1: up to 6 days
Experimental: Pancreata were dissected from embryonic day (E)15.5 CBA mouse fetuses and dissociated into single cells as described (Jiang et al., 1999). Briefly, dissected pancreas was digested with trypsin/EDTA for 15 minutes at 37° C. in a shaking water bath. Cells were counted in a haemocytometer and viability determined by trypan blue dye exclusion. Each fetal pancreas yielded 50,000 viable cells (48,509±11,299, n=14). Dissociated cells were plated in 8 well chamber slides (Nunc, Naperville, USA) at 7.5×10^4 cells/well in 0.3 ml AIM V medium supplemented with N-2 (1:100, Gibco BRL Life Technologies, Gaithersburg, USA), 500 UI/ml penicillin and 500 μg/ml streptomycin. Laminin-1 (160 μg/ml), purified from murine Engelbreth-Holm-Swarm tumor basement membrane (Becton Dickinson Labware, Bedford, USA), was overlayed on cells in the presence of various growth factors. Cultures were incubated in 10% CO2 90% air at 37° C., for up to 6 days. Recombinant human BMP 6 and BMP 5, recombinant human TGF-β1 and recombinant activin A were purchased from R&D Systems (Minneapolis, USA). These factors, dissolved at a concentration of 10 ng/μl in mouse tonicity phosphate buffered saline (PBS) containing 0.1% w/v bovine serum albumin (BSA), were added at the start of culture. Phase contrast images of colonies were photographed with Olympus IX70 digitized camera.
Colony formation was assessed at day 6 of culture. A colony was defined as a cellular sphere ≧30 μm in diameter, which contained more than 20 cells. The number of colonies per well was counted directly under a inverted microscope at ×10. Colony counts were performed using a blind design.

[3] = system: E15.5 CBA mouse fetal pancreas cells; assay: as above; conditions: BMP alone

Row | Molecule | relative BMP bioactivity (C2C12 myoblasts; FIG. 3, heterodimer versus homodimer) | BMP activity of conditioned medium (alkaline phosphatase activity of C2C12 cells) (C2C12 myoblasts) | proliferation and colony formation of fetal pancreas cells ([1]; in the presence (but not absence) of laminin-1, four days culture) | BMP 6-induced colony formation ([2]; 100 ng/ml against BMP 6 10 ng/ml, laminin-1 160 μg/ml, p<0.01 (FIG. 10B)) | colony formation relative to laminin-1 alone ([2]; 100 ng/ml, laminin-1 160 μg/ml (FIG. 10A)) | proliferation or colony formation, candidate growth factors individually ([1]; 13.5 dpc fetal pancreas cells) | colony formation in the absence of laminin-1 [3] | concentration of maximal stimulation of colony formation ([2]; laminin-1 160 μg/ml) [ng/mL] | formation of cystic colonies in the presence of laminin-1 ([2]; laminin-1 160 μg/ml)
1 | B1 | more active than 4/4 homodomers | significant activity | stimulated fetal pancreas cells to proliferate and form colonies | – | – | – | – | – | –
2 | B2 | – | – | – | antagonized | suppressed colony formation to levels below that observed with laminin-1 alone | unable to promote proliferation or colony formation | – | – | –
3 | B3 | – | significant BMP activity was never detected | – | – | – | – | no effect | 10 | synergized with laminin-1 to promote formation of cystic colonies
4 | B4 | – | – | – | – | – | – | no effect | 100 | synergized with laminin-1 to promote formation of cystic colonies
